Results as given in patent US20180207191A1, “HUMAN CANCER MICRO-RNA EXPRESSION PROFILES PREDICTIVE OF CHEMO-RESPONSE” (H. LEE MOFFITT CANCER CENTER AND RESEARCH INSTITUTE, INC., priority 2010, published 2018).

How the values were obtained:
renal cell line TK-10 = settings: TK-10 renal cell line; publicly available GI50; cited from earlier work
renal cell line 786-0 = settings: 786-0 renal cell line; publicly available GI50; cited from earlier work
miR-367 [1] = experiment: Real-time quantitative RT-PCR of miR-367 after transfection, 786-0 cells; type: cell-based, human; settings: 50 nM final, QPCR normalized to RNU44
Procedure: (§1) miR-367 Transfection. Pre-miR-367 and Anti-miR-367 were purchased from Ambion. Log-phase cells (˜60% confluency) were transfected with 6.25 μM Pre-miR-367 or Anti-miR-367 using siPORT NeoFX transfection reagent (Ambion) at a final concentration of 50 nM according to manufacturer's instructions. Controls included transfection of a non-targeting miRNA (Negative Control #1).
(§2) Real-time Quantitative RT-PCR of miRNA. Real-time Quantitative RT-PCR was used to validate successful miRNA transfection. TaqMan®MicroRNA Reverse Transcription kit (Applied Biosystems) was used to convert specific miRNAs to cDNA. RNU44 was used as control for quantification. Per Applied Biosystems' protocol, real-time PCR was performed adding 1.34 μl of each completed RT reaction to target TaqMan microRNA Assay reaction with TaqMan Universal PCR Master Mix (final reaction volume equal 20 μl). Samples (786-0 and TK-10 cell lines transfected with Pre-miR-367 precursor, Anti-miR-367 inhibitor, and Anti-miR-inhibitor Negative Control #1) were evaluated in triplicate and run on the Applied Biosystems 7900HT Fast Real-Time PCR System. Assay data was analyzed using SDS 2.2.2 software.

TK-10 cells = experiment: Growth inhibition assay (CellTiter-Glo), topotecan after miR-367 modulation; type: cell-based, human; settings: TK-10 cells (topotecan resistant, low miR-367), topotecan 48 hours, 24 hours after transfection
Procedure: as §1
(§3) Growth inhibition assay. Topotecan, obtained from Sequola Research Products Ltd, was dissolved in DMSO (Sigma) at concentration of 20 mM and stored at −20° C. Cells were seeded in 96-well plates (Nunc) at a density of 5×10^5 cells per ml and incubated overnight at 37° C. Cells were incubated with the indicated concentrations of topotecan for 48 hours and cell viability was analyzed using the CellTiter-Glo™ luminescent cell viability assay kit (Promega). Luminescence was recorded using Wallac Victor^2™ 1420 Multilabel Counter (Perkin Elmer Life Sciences). Wells containing medium without cells were used to obtain background luminescence. All experimental wells and controls were set up in triplet.
(§4) The effects of miR-367 modulation on topotecan-induced cell death and growth arrest were evaluated using the CellTiter-Glo' luminescent cell viability assay (FIG. 2). Twenty-four hours after transfection, cells were subject to 48 hours of topotecan treatment.

786-0 cells = experiment: as above; type: cell-based, human; settings: 786-0 cells (topotecan sensitive, high miR-367), topotecan 48 hours, 24 hours after transfection
Procedure: as §1, §3, §4

miR-367 [2] = experiment: Real-time quantitative RT-PCR of miR-367 after transfection, TK-10 cells; type: cell-based, human; settings: 50 nM final, QPCR normalized to RNU44
Procedure: as §1, §2

Molecule | log10 GI50 (renal cell line TK-10) | log10 GI50 (renal cell line 786-0) | miR-367 levels compared to non-targeting miRNA control (miR-367 [1]) | change in sensitivity to topotecan-induced cell death and growth arrest vs non-targeting control (TK-10 cells) | change in sensitivity to topotecan-induced cell death and growth arrest vs non-targeting control (TK-10 cells; listed as miR-367 precursor) | change in sensitivity to topotecan-induced cell death and growth arrest vs non-targeting control (TK-10 cells; listed as pre-miR-367) | change in sensitivity to topotecan-induced cell death and growth arrest vs non-targeting control (TK-10 cells; listed as precursor to miR-367) | change in sensitivity to topotecan-induced cell death and growth arrest vs non-targeting control (786-0 cells) | change in sensitivity to topotecan-induced cell death and growth arrest vs non-targeting control (786-0 cells; listed as pre-miR-367) | miR-367 levels compared to non-targeting miRNA control (miR-367 [2])
CC[C@@]1(O)C(=O)OCc2c1cc1n(c2=O)Cc2cc3c(CN(C)C)c(O)ccc3nc2-1 [Topotecan] | −5.279 | −7.903 |  |  |  |  |  |  |  | 
Pre-miR-367: precursor of miR-367 purchased from Ambion; exemplified pre-miR367 precursor sequence SEQ ID NO:158 (nucleic acid, listed as RNA, chemistry not given here) CCAUUACUGUUGCUAAUAUGCAACUCUGUUGAAUAUAAAUUGGAAUUGCACUUUAGCAAUGGUGAUGG |  |  | increase | significantly increased cell death and growth arrest induced by topotecan | increased sensitivity to topotecan | increase in topotecan-induced cell death | significant increase in topotecan-induced cell death and growth arrest | No differences in topotecan sensitivity | increase in topotecan-induced cell death | increase
